Patent US10925971B2, “Methods of treating PRLR positive breast cancer” (Regeneron Pharmaceuticals, Inc., priority 2016, dated 2021)
“Also recorded” adds a separate entry of the source.

Experiments:
T47Dv11 tumors = assay: T47Dv11 breast tumor xenograft, single agent and combination with fulvestrant; assay type: in vivo, C.B.-17 SCID mice; details: for Average Tumor Growth Inhibition (%) / Final Tumor Volume (mean ± SD): T47DvII tumors in SCID mice, Day 70
Experimental: The T47Dv11 model was used to assess the activity of H1H6958N2-DM1 in a model with significant levels of endogenous PRLR. […] Initially, 10×10^6 parental T47D cells were implanted subcutaneously (SC) into the left flank of female C.B.-17 SCID mice (Taconic, Hudson N.Y.). Tumors were supplemented with a 90-day release 1.7 mg estrogen pellet (Innovative Research America). Where T47D tumors were observed, they were excised and cut into 3 mm fragments and subsequently implanted into the left flank of separate female C.B.-17 SCID mice. Subsequent passaging was performed until a large tumor was disaggregated into a single cell suspension. The cells (named T47Dv11) from this tumor were then cultured in vitro and expanded. […] For efficacy studies, mice were implanted with 7.5×10^6 T47Dv11 cells into the left flank of female C.B.-17 SCID mice supplemented with a 90-day release 0.72 mg/pellet estrogen pellet. For MCF7 and MCF7/PRLR tumor xenografts, 2×10^7 MCF7/PRLR cells were implanted SC into the left mammary fat pad of female NCr nude mice (7-8 weeks old) supplemented with 90-day release 0.72 mg/pellet estrogen pellets. Tumors were measured with calipers twice a week for the duration of each study. Tumor volume was calculated using the formula TV=(length×width^2)/2.
After T47Dv11 tumors reached an average volume of ˜150-200 mm^3 (14-16 days post implantation), mice were randomized into treatment groups (n=8-9 mice/group) and received a single dose or three once-weekly doses of H1H6958N2-DM1, control ADC, or vehicle control, administered systemically by intravenous tail-vein injection. […] Tumor size and body weight were measured in vivo twice per week throughout the duration of the study.
Next, the combination of H1H6958N2-DM1 with the SERD fulvestrant was tested in the T47Dv11 xenograft model. Here, the activity of either agent at partially effective doses was compared against the activity of the agents in combination. First, a dose titration study of weekly administration of fulvestrant was performed in order to establish its single agent activity (FIG. 4).
For the subcutaneous tumors, average tumor size as well as tumor growth inhibition relative to the Vehicle treated group were calculated for each group. Tumors were measured with calipers twice a week until the average size of the vehicle group reached 1200 mm^3. Tumor size was calculated using the formula (length×width^2)/2. For all studies, tumor growth inhibition was calculated according to the following formula: (1−((Tfinal−Tinitial)/(Cfinal−Cinitial)))*100, where T (treated group) and C (control group) represent the mean tumor mass on the day the vehicle group reached 1000 mm^3.

[1] = tested on: PRLR expression in T47DvII cells; assay: PRLR expression after continuous culture with fulvestrant (flow cytometry or western blotting); assay type: cell-based, human; details: continuous culture with 10 or 100 nM, data not shown
HEK293 (293) cells = assay: In vitro cell viability (cell kill) assay, CCK8; assay type: cell-based, human; details: HEK293, Table 13
Method in brief: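 Three-day exposure to DM1-conjugated anti-PRLR antibodies or DM1-SMe, 500 nM down to 5 pM, in cells engineered to express human PRLR. Surviving cells are quantified by CCK8 absorbance or by imaged Hoechst nuclear counts, relative to untreated wells.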

T47D cells [2] = assay: In vitro cell viability (cell kill) assay, CCK8; assay type: cell-based, human; details: T47D; Table 13; without PRL
Experimental: (§1) Next, the ability of anti-PRLR-DM1 antibody-drug conjugates (i.e., anti-PRLR antibodies conjugated to DM1 via a non-cleavable linker [SMCC]) to reduce cell viability was determined using in vitro cell based assays. Cells were seeded in PDL-coated 96 well plates at 1500 to 10000 cells per well in complete growth media and allowed to grow overnight. For cell viability curves, ADCs or free DM1 (as the methyl disulfide derivative DM1-SMe) were added to the cells at final concentrations ranging from 500 nM to 5 pM and incubated for 3 days. The 293, PC3 and T47D cells were incubated with CCK8 (Dojindo, Rockville, Md.) for the final 1-3 hours and the absorbance at 450 nm (OD450) was determined on a Flexstation3 (Molecular Devices, Sunnyvale, Calif.). MCF7 cells were treated with Hoechst 33342 nuclear stain while being fixed with 4% formaldehyde. Images were acquired on the ImageXpress micro XL (Molecular Devices, Sunnyvale, Calif.) and nuclear counts were determined via Columbus image analysis software (Perkin Elmer, Shelton, Conn.). Background OD450 values (PC3, 293, and T47D) or nuclear counts (MCF7) from digitonin (40 nM) treated cells was subtracted from all wells and viability was expressed as a percentage of the untreated controls. IC50 values were determined from a four-parameter logistic equation over a 10-point response curve (GraphPad Prism).

T47D cells [3] = assay: Cell kill in the presence of PRLR ligand PRL (15 nM); assay type: cell-based, human; details: Table 13, + 15 nM PRL
Experimental: as §1

[4] = biological target: human PRLR (dimeric) binding to PRL (Homo sapiens, UniProt P16471); assay: ELISA-based blocking of PRLR binding to immobilized human PRL; details: plates coated with 1 μg/mL PRL; read-out: EC50, human PRLR binding to captured PRL
human PRLR (dimeric) binding to PRL, sequence (P16471 with tags, fused parts or gaps limits assumed): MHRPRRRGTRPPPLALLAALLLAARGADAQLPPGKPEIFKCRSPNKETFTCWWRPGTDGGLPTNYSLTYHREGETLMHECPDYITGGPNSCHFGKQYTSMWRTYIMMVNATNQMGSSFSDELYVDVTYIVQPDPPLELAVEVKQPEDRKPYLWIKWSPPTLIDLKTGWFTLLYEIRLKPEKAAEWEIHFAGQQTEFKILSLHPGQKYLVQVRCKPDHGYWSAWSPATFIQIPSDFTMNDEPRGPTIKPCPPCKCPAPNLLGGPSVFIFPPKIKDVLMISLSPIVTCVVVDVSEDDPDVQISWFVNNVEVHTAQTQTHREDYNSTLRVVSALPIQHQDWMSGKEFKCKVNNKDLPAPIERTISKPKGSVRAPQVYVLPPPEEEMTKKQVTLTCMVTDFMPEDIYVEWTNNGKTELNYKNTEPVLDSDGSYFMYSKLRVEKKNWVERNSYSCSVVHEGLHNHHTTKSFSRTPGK
Experimental: (§2) ELISA-based blocking assays were developed to determine the ability of H1H6958N2 and H1H6958N2-DM1 to block binding of human and cynomolgus monkey PRLR to immobilized human PRL. Dimeric forms of human or cynomolgus monkey (Macaca fascicularis) PRLR and monomeric human PRL were used in this assay. To generate initial dose-response curves, human or monkey PRLR at concentrations ranging from 3.38 pM to 200 nM was added to the plates previously coated in 1 μg/mL PRL. After 1-hour incubation, captured PRLR was detected with HRP-conjugated goat anti-Fcγ antibody and visualized with TMB colorimetric substrate by measuring absorbance at 450 nm. […] Mixtures were then added to plates coated with in 1 μg/mL PRL and captured PRLR was detected as described above. Data were analyzed using a four-parameter logistic equation over an 11-point response curve in GraphPad Prism software and IC50 values were calculated.

[5] = biological target: cynomolgus monkey PRLR (dimeric) binding to PRL; assay: as above; design: species or system Macaca fascicularis; details: plates coated with 1 μg/mL PRL; read-out: EC50, monkey PRLR binding to captured PRL
cynomolgus monkey PRLR (dimeric) binding to PRL, sequence (as listed by the source): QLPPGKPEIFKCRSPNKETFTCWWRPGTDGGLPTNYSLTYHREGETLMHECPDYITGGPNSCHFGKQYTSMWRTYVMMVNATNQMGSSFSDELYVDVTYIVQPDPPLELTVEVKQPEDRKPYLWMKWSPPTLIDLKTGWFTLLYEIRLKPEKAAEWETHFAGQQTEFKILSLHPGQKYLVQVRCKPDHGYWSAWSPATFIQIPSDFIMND
Experimental: as §2

[6] = tested on: PRLR in HEK293/PRLR/STAT5-Luc cells; assay: STAT5 luciferase reporter assay, blocking of PRL-induced PRLR signaling (2 nM PRL); assay type: cell-based; details: PRL dose response, no antibody; read-out: EC50, stimulation of human PRLR signaling
Experimental: The capacity of H1H6958N2 and H1H6958N2-DM1 to block human PRL-induced PRLR signaling was determined in a luciferase reporter assay using the HEK293 cell line engineered to constitutively express PRLR and stably transduced with a lucifierase reporter construct comprising 5 tandem STAT5 binding sites derived from the promoter of the human interleukin-2 receptor α gene [STAT5 response element (×5)-luciferase] (John et al., The EMBO Journal, 1996, 15(20): 5627-5635). […] Plates were incubated at 37° C. and 5% CO2 for 5 hours and equilibrated to room temperature for 10 minutes. Luciferase activity was again measured using the ONE-Glo substrate and measuring luminescence.

Q: For `C[C@]12CC[C@@H]3c4ccc(O)cc4C[C@@H](CCCCCCCCC[S+]([O-])CCCC(F)(F)C(F)(F)F)[C@H]3[C@@H]1CC[C@@H]2O` (stereo partly shown) [fulvestrant, reference compound], which “Average Tumor Growth Inhibition (%)” value (T47Dv11 tumors; 150 mg/kg) is on record?
A: 52%

Q: And the “Final Tumor Volume (mean ± SD)” value (T47Dv11 tumors; 150 mg/kg)?
A: 660 ± 205 mm^3

Q: And the “Average Tumor Growth Inhibition (%)” value (T47Dv11 tumors; 250 mg/kg)?
A: 74%

Q: What about the “Final Tumor Volume (mean ± SD)” value (T47Dv11 tumors; 250 mg/kg) of the same molecule?
A: 433 ± 189 mm^3

Q: And the “anti-tumor activity” value (T47Dv11 tumors; combination study, individual treatment 150 or 250 mg/kg subcutaneously once weekly)?
A: Significant anti-tumor activity

Q: What about the “PRLR expression” value [1] of the same molecule?
A: did not decrease PRLR expression; also recorded: did not significantly reduce PRLR expression

B1: H1H6782P-SMCC-DM1 (conjugate)
VH: EVQLVESGGGLVQPGRSLRLSCAASGFTFDDYAMHWVRQAPGKGLEWVSGIIWNSGHIGYGDSVKGRFTISRDNAKKSLYLQMNSLRAEDTALYYCARDSGRYQSYFDYWGQGTLVTVSS
VL: DIQMTQSPSTLSASVGDRVTITCRASHIISSWLAWYQQKPGKAPKVLIFKASSLESGVPSRFSGSGSGTEFTLTISSLQPDDFATYYCQQYNTYSRTFGQGTKVEIK
Q: What does the source list for B1?
A: % Kill (HEK293 (293) cells; + 15 nM PRL): 78%; % Kill (HEK293 (293) cells; without PRL): 83%; % Kill (T47D cells [2]): 98%; % Kill (T47D cells [3]): 97%

B2: PRL: monomeric human prolactin, ligand of PRLR (protein)
chain: LPICPGGAARCQVTLRDLFDRAVVLSHYIHNLSSEMFSEFDKRYTHGRGFITKAINSCHTSSLATPEDKEQAQQMNQKDFLSLIVSILRSWNEPLYHLVTEVRGMQEAPEAILSKAVEIEEQTKRLLEGMELIVSQVHPETKENEIYPVWSGLPSLQMADEESRLSAYYNLLHCLRRDSHKIDNYLKLLKCRIIHNNNC
Q: What does the source list for B2?
A: EC50 [4]: 4.9 nM; EC50 [5]: 5.7 nM; EC50 [6]: 2.1 nM
